Results taken from the supplement of paper PMC7877785.
± gives the uncertainty stated by the source.

Assay: self-splicing fitness, log relative to wild type (ln ratio); higher = more splicing; Tetrahymena group I intron in knt gene, E. coli kanamycin selection, DiMSum; sequences stand for … in CUCUCU…GGAGGGAAAAGUUAUCAGGCAUGCACCUGGUAGCUAGUCUUUAAACCAAUAGAUUGCAUCGGUUUAAAAGGCAAGACCGUCAAAUUGCGGGAAAGGGGUCAACAGCCGUUCAGUACCAAGUCUCAGGGGAAACUUUGAGAUGGCCUUGCAAAGGGUAUGGUAAUAAGCUGACGGACAUGGUCCUAACCACGCAGCCAAGUCCUAAGUCAACAGAUCUUCUGUUGAUAUGGAUGCAGUUCACAGACUAAAUGUCGGUCGGGGAAGAUGUAUUCUUCUCAUAAGAUAUAGUCGGACCUCUCCUUAAUGGGAGCUAGCGGAUGAAGUGAUGCAACACUGGAGCCGCUGGGAACUAAUUUGUAUGCGAAAGUAUAUUGAUUAGUUUUGGAGUACUCGUGGUCG
How it was run: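 Colonies from six replicate transformations of E. coli BL21(DE3) were pooled and amplicon-sequenced on an Illumina HiSeq 2500. The library placed an intron with all eight P1ex-region nucleotides randomised inside the knt kanamycin-resistance gene on pET-22b(+), and cells grew overnight at 37°C or 30°C on LB agar with or without 25 μg/mL kanamycin (plus 100 μg/mL carbenicillin, 50 μM IPTG, 0.2% rhamnose). Fitness is the DiMSum error-weighted combination of wild-type-normalised replicate fold changes, kanamycin versus none.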

Row | Sequence | self-splicing fitness (ln) (30 °C) | self-splicing fitness (ln) (37 °C)
1 | GAAUAGCAAUAUUACGGUCG | -0.153 ± 0.098 | -0.479 ± 0.12
2 | GAAUAGCAAUAUUACGUAAU | -2.99 ± 0.13 | -0.789 ± 0.11
3 | GAAUAGCAAUAUUACGUACC | -0.757 ± 0.19 | -0.37 ± 0.3
4 | GAAUAGCAAUAUUACGUCCA | -1.28 ± 0.1 | -0.00949 ± 0.13
5 | GAAUAGCAAUAUUACGUCCU | -1.05 ± 0.11 | 0.425 ± 0.15
6 | GAAUAGCAAUAUUACGUCGC | -0.78 ± 0.12 | -0.38 ± 0.17
7 | GAAUAGCAAUAUUACGUCGG | -3.21 ± 0.12 | -3.19 ± 0.2
8 | GAAUAGCAAUAUUACGUUCC | -3.17 ± 0.32 | 
9 | GACAAGCAAUAUUACGAAGA | -2.94 ± 0.17 | -1.19 ± 0.13
10 | GACAAGCAAUAUUACGACAU | -0.624 ± 0.011 | -0.191 ± 0.032
11 | GACAAGCAAUAUUACGAGUC | -1.85 ± 0.15 | -2.72 ± 0.28
12 | GACAAGCAAUAUUACGAUUU | -0.222 ± 0.063 | 0.406 ± 0.081
13 | GACAAGCAAUAUUACGCAAC | -2.72 ± 0.14 | -2.15 ± 0.24
14 | GACAAGCAAUAUUACGCACU | 0.582 ± 0.11 | -0.112 ± 0.12
15 | GACAAGCAAUAUUACGCGCU | -1.29 ± 0.058 | -0.594 ± 0.073
16 | GACAAGCAAUAUUACGGAAG | -2.75 ± 0.21 | -3.29 ± 0.37
17 | GACAAGCAAUAUUACGGCCG | -0.239 ± 0.14 | -0.53 ± 0.22
18 | GACAAGCAAUAUUACGGGAA | -2.12 ± 0.097 | -1.36 ± 0.12
19 | GACAAGCAAUAUUACGGUAU | -1.29 ± 0.073 | -1.17 ± 0.087
20 | GACAAGCAAUAUUACGGUCA | -0.777 ± 0.13 | -0.735 ± 0.12
21 | GACAAGCAAUAUUACGUACC | -1.71 ± 0.13 | -1.11 ± 0.12
22 | GACAAGCAAUAUUACGUAGG | -3.07 ± 0.11 | -2.22 ± 0.13
23 | GACAAGCAAUAUUACGUCAU | -3.05 ± 0.15 | -2.62 ± 0.16
24 | GACAAGCAAUAUUACGUGAU | -1.77 ± 0.071 | -1.17 ± 0.09

Row | Sequence | self-splicing fitness (ln) (30 °C) | self-splicing fitness (ln) (37 °C)
25 | GACAAGCAAUAUUACGUUUU | -2.69 ± 0.076 | -1.97 ± 0.1
26 | GACCAGCAAUAUUACGAACC | -0.191 ± 0.09 | 0.0652 ± 0.092
27 | GACCAGCAAUAUUACGAACG | -0.447 ± 0.075 | -0.466 ± 0.11
28 | GACCAGCAAUAUUACGAACU | 0.271 ± 0.062 | -0.0101 ± 0.082
29 | GACCAGCAAUAUUACGAAGU | -1.45 ± 0.09 | -0.269 ± 0.1
30 | GACCAGCAAUAUUACGAGCC | -0.222 ± 0.093 | 0.0644 ± 0.14
31 | GACCAGCAAUAUUACGAUGC | -0.38 ± 0.059 | -0.185 ± 0.072
32 | GACCAGCAAUAUUACGAUUU | 0.0538 ± 0.046 | 0.446 ± 0.065
33 | GACCAGCAAUAUUACGCGAA | -0.483 ± 0.059 | -0.138 ± 0.083
34 | GACCAGCAAUAUUACGCGCG | -0.501 ± 0.061 | 0.0713 ± 0.078
35 | GACCAGCAAUAUUACGCGCU | -1.68 ± 0.12 | -0.412 ± 0.12
36 | GACCAGCAAUAUUACGCGGC | -3 ± 0.25 | -2.3 ± 0.29
37 | GACCAGCAAUAUUACGCGGU | -4.81 ± 0.39 | -3.27 ± 0.27
38 | GACCAGCAAUAUUACGCGUU | -3.49 ± 0.12 | -2.54 ± 0.14
39 | GACCAGCAAUAUUACGCUAC |  | -2.47 ± 0.3
40 | GACCAGCAAUAUUACGGAAA | -0.538 ± 0.086 | 0.437 ± 0.096
41 | GACCAGCAAUAUUACGGACA | -0.345 ± 0.078 | -0.496 ± 0.081
42 | GACCAGCAAUAUUACGGAUC | -1.45 ± 0.095 | -0.489 ± 0.12
43 | GACCAGCAAUAUUACGGAUU | -0.723 ± 0.049 | -0.029 ± 0.062
44 | GACCAGCAAUAUUACGGGGA | -0.82 ± 0.074 | -0.839 ± 0.087
45 | GACCAGCAAUAUUACGUAAU | -0.385 ± 0.058 | -0.075 ± 0.07
46 | GACCAGCAAUAUUACGUACC | -0.415 ± 0.08 | -0.106 ± 0.098
47 | GACCAGCAAUAUUACGUCAC | -4.24 ± 0.27 | -2.54 ± 0.2
48 | GACCAGCAAUAUUACGUUCU | -0.569 ± 0.078 | -0.975 ± 0.12
